{
  "source": "patent USRE39057",
  "key": {"[1]": {"target": "CXCR4 (Fusin), human (human) (UniProt P61073)", "assay": "cell-based or functional assay"}, "[2]": {"target": "CXCR4 (Fusin), human (human) (UniProt P61073)", "assay": "flow cytometry, H9 cells"}, "[3]": {"target": "CXCR4 (Fusin), human (human) (UniProt P61073)", "assay": "flow cytometry, MT-2 cells"}, "[4]": {"target": "CXCR4 (Fusin), human (human) (UniProt P61073)", "assay": "flow cytometry, C8166 cells"}, "[5]": {"target": "CXCR4 (Fusin), human (human) (UniProt P61073)", "assay": "flow cytometry, MOLT-4 cells"}, "[6]": {"target": "CXCR4 (Fusin), human (human) (UniProt P61073)", "assay": "flow cytometry, RD/CD4 cells"}, "[7]": {"target": "CXCR4 (Fusin), human (human) (UniProt P61073)", "assay": "flow cytometry, Sup T1 cells"}, "[8]": {"target": "CXCR4 (Fusin), human (human) (UniProt P61073)", "assay": "flow cytometry, HeLa/CD4 cells"}, "[9]": {"target": "CXCR4 (Fusin), human (human) (UniProt P61073)", "assay": "flow cytometry, Daudi/CD4 cells"}, "[10]": {"target": "CXCR4 (Fusin), human (human) (UniProt P61073)", "assay": "Scatchard analysis of 125I-12G5 binding; RD cells"}, "[11]": {"target": "CXCR4 (Fusin), human (human) (UniProt P61073)", "assay": "Scatchard analysis of 125I-12G5 binding; BC7 cells"}, "[12]": {"target": "CXCR4 (Fusin), human (human) (UniProt P61073)", "assay": "FACS, 10 µg/ml 12G5, Sup-T1 cells infected by HIV-2/vcp"}, "[13]": {"target": "CXCR4 (Fusin), human (human) (UniProt P61073)", "assay": "flow cytometry, PBMC cultured 5 days, average of 10 batches"}, "[14]": {"target": "CXCR4 (Fusin), human (human) (UniProt P61073)", "assay": "flow cytometry, macrophages cultured 5 days, average of 3 batches"}, "[15]": {"target": "HA-tagged CXCR4 (HA-tagged Fusin) on CHO-K1 cells (influenza; human) (UniProt P61073)", "assay": "Scatchard analysis of 125I-12G5 binding; CHO cells expressing HA-tagged Fusin"}, "[16]": {"target": "CXCR4 (Fusin), human (human) (UniProt P61073)", "assay": "Scatchard analysis of 125I-12G5 surface binding at 4 C; RD or BC7 cells (endogenous CXCR4)"}, "[17]": {"target": "HA-tagged CXCR4 (HA-tagged Fusin) on CHO-K1 cells (influenza; human) (UniProt P61073)", "assay": "Scatchard analysis of 125I-12G5 surface binding at 4 C; CHO cells expressing HA-tagged Fusin"}, "[18]": {"target": "CXCR4 (Fusin), human (human) (UniProt P61073)", "assay": "FACS, 10 µg/ml 12G5, BC7 cells chronically infected by HIV-2/vcp; loss of surface Fusin or blocking of the epitope not told apart"}, "[19]": {"target": "CXCR4 (Fusin), human (human) (UniProt P61073)", "assay": "FACS, 10 µg/ml 12G5, Daudi cells chronically infected by HIV-2/vcp; loss of surface Fusin or blocking of the epitope not told apart"}, "[20]": {"target": "CXCR4 (Fusin), human (human) (UniProt P61073)", "assay": "FACS, 10 µg/ml 12G5, Nalm6 cells chronically infected by HIV-2/vcp; loss of surface Fusin or blocking of the epitope not told apart"}},
  "data": [
    {"substance": "MAb 12G5 (antibody)", "values": [
      {"measurement": "antibody concentration required to inhibit HIV-2/vcp infection of CD4-negative BC7, Nalm6 and Daudi cells (RT activity)", "setting": "[1]", "result": "5 to 20", "unit": "µg/mL"},
      {"measurement": "antibody concentration that inhibited CP-MAC infection of Sup-T1 cells (RT activity)", "setting": "[1]", "result": 1, "unit": "µg/mL"},
      {"measurement": "percentage of cells expressing CXCR4 by 12G5 staining", "setting": "[2]", "result": 51.4, "unit": "%"},
      {"measurement": "percentage of cells expressing CXCR4 by 12G5 staining", "setting": "[3]", "result": 99, "unit": "%"},
      {"measurement": "percentage of cells expressing CXCR4 by 12G5 staining", "setting": "[4]", "result": 72, "unit": "%"},
      {"measurement": "percentage of cells expressing CXCR4 by 12G5 staining", "setting": "[5]", "result": 89.5, "unit": "%"},
      {"measurement": "percentage of cells expressing CXCR4 by 12G5 staining", "setting": "[6]", "result": 93.3, "unit": "%"},
      {"measurement": "percentage of cells expressing CXCR4 by 12G5 staining", "setting": "[7]", "result": 81.5, "unit": "%"},
      {"measurement": "percentage of cells expressing CXCR4 by 12G5 staining", "setting": "[8]", "result": 35.5, "unit": "%"},
      {"measurement": "percentage of cells expressing CXCR4 by 12G5 staining", "setting": "[9]", "result": 88.4, "unit": "%"},
      {"measurement": "antibody molecules bound per cell (antibody molecules per cell)", "setting": "[10]", "result": 400000},
      {"measurement": "antibody molecules bound per cell (antibody molecules per cell)", "setting": "[11]", "result": 50000},
      {"measurement": "percent reduction of 12G5 binding on HIV-2/vcp-infected against uninfected cells", "setting": "[12]", "result": 75, "unit": "%"},
      {"measurement": "percentage of cells expressing CXCR4 by 12G5 staining", "setting": "[13]", "result": 27.8, "unit": "%"},
      {"measurement": "percentage of cells expressing CXCR4 by 12G5 staining", "setting": "[14]", "result": 5.2, "unit": "%"},
      {"measurement": "antibody molecules bound per cell (antibody molecules per cell)", "setting": "[15]", "result": "1e+06"},
      {"measurement": "Kd", "setting": "[16]", "result": "1 to 5", "unit": "nM"},
      {"measurement": "Kd", "setting": "[17]", "result": "1 to 5", "unit": "nM"},
      {"measurement": "percent reduction of 12G5 binding on HIV-2/vcp-infected against uninfected cells", "setting": "[18]", "result": 98, "unit": "%"},
      {"measurement": "percent reduction of 12G5 binding on HIV-2/vcp-infected against uninfected cells", "setting": "[19]", "result": 79, "unit": "%"},
      {"measurement": "percent reduction of 12G5 binding on HIV-2/vcp-infected against uninfected cells", "setting": "[20]", "result": 87, "unit": "%"}
    ]}
  ]
}
